Laboratory results: patent US20120277286A1, “COMPOSITIONS AND METHODS FOR THE TREATMENT OR PREVENTION OF MITOCHONDRIAL DISEASES” (The Government of the USA, as represented by the Secretary, …, priority 2009, published 2012)
Numbering of substitutions follows the chain as printed. Names and notes keep the numbering of the source.

B1: Twinkle G575D: catalytically inactive mutant of mitochondrial DNA helicase Twinkle, Flag-tagged (protein, UniProt Q96RR1 32-684, looked up, variant G575D)
Twinkle mtDNA helicase: APGPPRRRYRKETLQALDMPVLPVTATEIRQYLRGHGIPFQDGHSCLRALSPFAESSQLKGQTGVTTSFSLFIDKTTGHFLCMTSLAEGSWEDFQASVEGRGDGAREGFLLSKAPEFEDSEEVRRIWNRAIPLWELPDQEEVQLADTMFGLTKVTDDTLKRFSVRYLRPARSLVFPWFSPGGSGLRGLKLLEAKCQGDGVSYEETTIPRPSAYHNLFGLPLISRRDAEVVLTSRELDSLALNQSTGLPTLTLPRGTTCLPPALLPYLEQFRRIVFWLGDDLRSWEAAKLFARKLNPKRCFLVRPGDQQPRPLEALNGGFNLSRILRTALPAWHKSIVSFRQLREEVLGELSNVEQAAGLRWSRFPDLNRILKGHRKGELTVFTGPTGSGKTTFISEYALDLCSQGVNTLWGSFEISNVRLARVMLTQFAEGRLEDQLDKYDHWADRFEDLPLYFMTFHGQQSIRTVIDTMQHAVYVYDICHVIIDNLQFMMGHEQLSTDRIAAQDYIIGVFRKFATDNNCHVTLVIHPRKEDDDKELQTASIFDSAKASQEADNVLILQDRKLVTGPGKRYLQVSKNRFDGDVGVFPLEFNKNSLTFSIPPKNKARLKKIKDDTGPVAKKPSSGKKGATTQNSEICSGQAPTPDQPDTSKRSK
modifications: Flag tag
B2: wild-type Twinkle: Flag-tagged wild-type mitochondrial DNA helicase Twinkle (protein, UniProt Q96RR1 32-684, looked up)
Twinkle mtDNA helicase: B1 Twinkle mtDNA helicase with D544G
modifications: Flag tag
B3: C253Y: YFP-Parkin patient mutation in conserved RING cysteine (protein, UniProt O60260 1-465, looked up, variant C253Y)
E3 ubiquitin-protein ligase …: MIVFVRFNSSHGFPVEVDSDTSIFQLKEVVAKRQGVPADQLRVIFAGKELRNDWTVQNCDLDQQSIVHIVQRPWRKGQEMNATGGDDPRNAAGGCEREPQSLTRVDLSSSVLPGDSVGLAVILHTDSRKDSPPAGSPAGRSIYNSFYVYCKGPCQRVQPGKLRVQCSTCRQATLTLTQGPSCWDDVLIPNRMSGECQSPHCPGTSAEFFFKCGAHPTSDKETSVALHLIATNSRNITCITCTDVRSPVLVFQYNSRHVICLDCFHLYCVTRLNDRQFVHDPQLGYSLPCVAGCPNSLIKELHHFRILGEEQYNRYQQYGAEECVLQMGGVLCPRPGCGAGLLPEPDQRKVTCEGGNGLGCGFAFCRECKEAYHEGECSAVFEASGTTTQAYRVDERAAEQARWEAASKETIKKTTKPCPRCHVPVEKNGGCMHMKCPQPQCRLEWCWNCGCEWNRVCMGDHWFDV
modifications: YFP fusion
notes: YFP-Parkin patient mutation in conserved RING cysteine
B4: C289G: YFP-Parkin patient mutation in conserved RING cysteine (protein, UniProt O60260 1-465, looked up, variant C289G)
E3 ubiquitin-protein ligase …: B3 E3 ubiquitin-protein ligase … with Y253C, C289G
modifications: YFP fusion
notes: as for B3
B5: C441R: YFP-Parkin patient mutation in conserved RING cysteine (protein, UniProt O60260 1-465, looked up, variant C441R)
E3 ubiquitin-protein ligase …: B3 E3 ubiquitin-protein ligase … with Y253C, C441R
modifications: YFP fusion
notes: as for B3
B6: L347P: patient mutant of PINK1, V5-tagged (protein, UniProt Q9BXM7 78-581, looked up, variant L347P)
Serine/threonine-protein …: AARLQRQFVVRAWGCAGPCGRAVFLAFGLGLGLIEEKQAESRRAVSACQEIQAIFTQKSKPGPDPLDTRRLQGFRLEEYLIGQSIGKGCSAAVYEATMPTLPQNLEVTKSTGLLPGRGPGTSAPGEGQERAPGAPAFPLAIKMMWNISAGSSSEAILNTMSQELVPASRVALAGEYGAVTYRKSKRGPKQLAPHPNIIRVLRAFTSSVPLLPGALVDYPDVLPSRLHPEGLGHGRTLFLVMKNYPCTLRQYLCVNTPSPRLAAMMLLQLPEGVDHLVQQGIAHRDLKSDNILVELDPDGCPWLVIADFGCCLADESIGLQLPFSSWYVDRGGNGCLMAPEVSTARPGPRAVIDYSKADAWAVGAIAYEIFGLVNPFYGQGKAHLESRSYQEAQLPALPESVPPDVRQLVRALLQREASKRPSARVAANVLHLSLWGEHILALKNLKLDKMVGWLLQQSAATLLANRLTEKCCVETKMKMLFLANLECETLCQAALLLCSWRAAL
modifications: V5 tag
notes: patient mutant of PINK1, V5-tagged
B7: H271Q: patient mutant of PINK1, V5-tagged (protein, UniProt Q9BXM7 78-581, looked up, variant H271Q)
Serine/threonine-protein …: B6 Serine/threonine-protein … with H194Q, P270L
modifications: V5 tag
notes: as for B6
B8: A168P: patient mutant of PINK1, V5-tagged (protein, UniProt Q9BXM7 78-581, looked up, variant A168P)
Serine/threonine-protein …: B6 Serine/threonine-protein … with A91P, P270L
modifications: V5 tag
notes: as for B6

What was measured:
HeLa cells = assay: Parkin colocalization with mitochondria scored by confocal microscopy; format: cell-based; conditions: for cells with Parkin localized to mitochondria: HeLa transfected with Flag-tagged Twinkle for 5 days; for recruitment of mutant YFP-Parkin to depolarized mitochondria / recruitment of mutant YFP-Parkin to mitochondria: HeLa; for recruitment of mutant YFP-Parkin to depolarized mitochondria: CCCP 1 hr; for recruitment of mutant YFP-Parkin to mitochondria: 10 μM CCCP, 24 hours
Method: Cultured cells seeded in borosilicate chamber slides (Thermo Fisher Scientific) were transfected or cotransfected with YFP-Parkin, ECFP-Parkin, mCherry-Parkin, DsRed-Mito (Clontech Laboratories, Inc.), pcDNA3.1 (Invitrogen), vMIA, and/or Drp1K38A constructs using Fugene 6 (Roche). Parkin-myc was a gift from M. Cookson (National Institutes of Health, Bethesda, Md.). Cells were fixed 12-24 hours after transfection with 4% paraformaldehyde in PBS. Cells were stained with following primary antibodies: mouse monoclonal cytochrome c (BD), rabbit polyclonal Tom20 (Santa Cruz Biotechnology, Inc.), mouse monoclonal Parkin PRK8 (Santa Cruz Biotechnology, Inc.), rabbit polyclonal PMP70 (Invitrogen), and/or mouse monoclonal TRAP1 (Abcam); and with the following secondary antibodies: mouse and/or rabbit Alexa 488, 594, and 633 (Invitrogen). For assessment of mitochondrial membrane potential, cells were pulsed with 50 nM Mito-Tracker red (Invitrogen) for 15 min, washed, and incubated for an additional 10 minutes before fixation or imaging. For assessment of cell metabolic potential, cell nuclei were stained with Hoechst 33342 (Invitrogen).
Fixed cells and live cells in the FLIP assay were imaged using an inverted microscope (LSM510 Meta; Carl Zeiss, Inc.) with a 63×/1.4 oil DIC Plan Apo objective at 25° C. and 37° C., respectively. For the FLIP assay, a bleach region of interest (ROI) occupying approximately one eighth of the cell was positioned over a relatively mitochondria-free portion of the cytosol. Cells were alternately bleached (488 nm using a 30-mW argon laser at 75% power and 100% transmission for 150 iterations) and imaged (488 nm at 75% power and 2% transmission) for 10 minutes (—60 cycles over the length of the experiment). Two channel prebleach and postbleach images were obtained with 488 and 594 lasers to assess the position of mitochondria before and after bleaching. Circular ROIs with diameters of ˜1 and 5 μm, respectively, were placed over the mitochondria and cytosol of the target cell, and an ROI of 10 μm was placed over the control cell. Imaging of YFP-Parkin translocation in live HeLa cells was performed on a live cell imager system (UltraView LCI; PerkinElmer) at 35° C. with a 100×/1.45 α-Plan-Fluor objective.
Image contrast and brightness were adjusted in Photoshop (Adobe). Colocalization was assessed with line scans using MetaMorph (MDS Analytical Technologies). For analysis of mitochondrial membrane potential in cells, mitochondrial voxels in each image (the cytochrome c channel threshold was ≧400 au) were segregated into Parkin-positive (the YFP-Parkin channel threshold was ≧1,100 au) or Parkin-negative subsets, and MitoTracker intensity for each voxel was measured using Volocity software (Improvision). For each cell, the mean MitoTracker intensity per voxel was calculated for the Parkin-positive and Parkin-negative subsets. The difference in mean Mito-Tracker intensity between the Parkin-positive and Parkin-negative subsets was calculated using a paired t test. Western blotting HeLa cells stably expressing YFP-Parkin, HEK293 cells, and rat cortical neurons 2 days in vitro were harvested and fractionated as described previously (Karbowski et al., J. Cell Biol. 178: 71-84, 2007). Samples were run on SDS-PAGE and immunoblotted with the following antibodies: polyclonal rabbit anti-GFP (Invitrogen), mouse monoclonal anti-Parkin (PRK8), and mouse monoclonal anti-Porin 31HL (EMD).
(§1) Confocal microscopy of fixed samples, scoring of Parkin recruitment and Parkininduced mitophagy, and live cell imaging were performed as described previously (Narendra (2008) J Cell Biol 183: 795-803). Experiments in Mfn1/2 null cells were performed as described previously with minor modifications.
Confocal microscopy of fixed samples, scoring of Parkin recruitment and Parkin-induced mitophagy, and live cell imageing were performed as described previously (Narendra (2008) J Cell Biol 183: 795-803). […]

[1] = tested on: PINK1+/+ or PINK1−/− MEFs; assay: YFP-Parkin recruitment to mitochondria in MEFs; format: cell-based, mouse; conditions: PINK1−/− primary MEFs co-transfected with construct, 20 μM CCCP, 3 hours
From the text: HeLa YFP-Parkin, PINK1+/+ SV40 transformed MEFs cells, PINK1−/− SV40 transformed MEF, M17 neuroblastoma control shRNA, M17 neuroblastoma PINK1, and Mfn1/2−/− MEF cell lines have been described previously (Narendra (2008) J Cell Biol 183: 795-803). PINK1+/+ and PINK1−/− primary MEFs were isolated from embryos using a standard protocol (Gautier (2008) Proc Natl Acad Sci USA 105: 11364-11369). Parkin+/+ and Parkin−/− transformed MEFs were created by isolation of primary cells from embryos of B6.129S4-Park2tm1Shn/J mice (Jackson Labs), using a standard protocol (Gautier (2008) Proc Natl Acad Sci USA 105: 11364-11369), followed by retroviral transduction of SV40 (Applied Biological Materials, Inc.). YFP-Parkin, YFPParkin mutants, mCherry-Parkin, PINK1-YFP, PINK1 KD-YFP, PINK1 Δ1-110-YFP, and Opa3-PINK1 Δ1-110-YFP are in C1 or N1 Clontech vectors. PINK1WT-V5, PINK1 KD-V5, and PINK1 Δ1-156-V5 are in pDest40 vector (Invitrogen). PINK1 patient mutations are in pLenti-V5 vector (Invitrogen). PINK1-myc is in a pCMBTNT vector (Promega).
as §1
HeLa YFP-Parkin, E18 Rat cortical neurons, PINK1^+/+ SV40 transformed MEFs cells, PINK1^−/− SV40 transformed MEF, M17 neuroblastoma control shRNA, M17 neuroblastoma PINK1, Mfn1/2^−/− MEF, and Parl^−/− MEF cell lines have been described previously (Narendra (2008) J Cell Biol 183: 795-803). PINK1^+/+ and PINK1^−/− primary MEFs were isolated from embryos using a standard protocol (Gautier (2008) Proc Natl Acad Sci USA 105: 11364-11369). Parkin^+/+ and Parkin^−/− transformed MEFs were created by isolation of primary cells from embryos of B6.129S4-Park2^tm1Shn/J mice (Jackson Labs), using a standard protocol (Gautier (2008) Proc Natl Acad Sci USA 105: 11364-11369), followed by retroviral transduction of SV40 (Applied Biological Materials, Inc.). YFP-Parkin, YFP-Parkin mutants, mCherry-Parkin, PINK1-YFP, PINK1 KD-YFP, PINK1 Δ1-110-YFP, and Opa3-PINK1 Δ1-110-YFP are in C1 or N1 Clontech vectors. PINK1WT-V5, PINK1 KD-V5, and PINK1 Δ1-156-V5 are in pDest40 vector (Invitrogen). PINK1 patient mutations are in the pLenti-V5 vector (Invitrogen). PINK1-myc is in a pCMBTNT vector (Promega). The PARL shRNA construct targeting (5′ […] 3′) is in the pSuper-GFP vector. To make FRB-PINK1 (111-581)-YFP and Tom20 (1-33)-FKBP, PCR fragments containing PINK1 (111-581)-YFP and Tom20 (1-33) were cloned into the BamHI site of the pC4-RHE vector and the EcoRI and XbaI sites of pC4M-F2E vectors, respectively (ARIAD Pharmaceuticals). The rapamycin analogue AP21967 was obtained from ARIAD Pharmaceuticals. The PARL shRNA construct targeting (5′ […] 3′) is in the pSuper-GFP vector (OligoEngine).
as §1, with “Parkin-induced” for “Parkininduced”, “imageing” for “imaging”, “modifications described in the supplemental methods (Narendra (2008) J Cell Biol 183: 795-803).” for “modifications.”

Row | Molecule | recruitment of mutant YFP-Parkin to depolarized mitochondria (HeLa cells) | reconstitution of YFP-Parkin recruitment [1] | further results
1 | B1 |  |  | cells with Parkin localized to mitochondria (HeLa cells): 13.1±2.3%
2 | B2 |  |  | cells with Parkin localized to mitochondria (HeLa cells): 6.7±1.2%
3 | B3 | completely disrupt |  | 
4 | B4 | completely disrupt |  | recruitment of mutant YFP-Parkin to mitochondria (HeLa cells): Mitochondrial recruitment was seen
5 | B5 | completely disrupt |  | recruitment of mutant YFP-Parkin to mitochondria (HeLa cells): Mitochondrial recruitment was seen
6 | B6 |  | failed to reconstitute | 
7 | B7 |  | failed to reconstitute | 
8 | B8 |  | failed to reconstitute | 
